{
  "source": "patent US20240209112A1",
  "about": "(GENOME, published 2024)",
  "binders": {"B1": {"name": "anti-BCAM human IgG4 antibody 111c (antibody, V domains shown)", "VH": "EVQLVQSGGGLVKPGGSLRLSCAASGFTFSDYYMSWIRQAPGKGLEWVSYTSSSGSTIYYADSVKGRFTISRDNAKNSLYLQMNSLRAEDTAVYYCARDITAFDIWGQGTMVTVSS", "VL": "LPVLTQPPSASGSPGQSVTISCTGTSSDVGGYNYVSWYQQHPGKAPKLMIYEVNKRPSGVPDRFSGSKSGNTASLTVSGLQAEDEADYYCCSYAGSNNYVFGTGTKVTVL"}, "B2": {"name": "anti-BCAM human IgG4 antibody 111b (antibody, V domains shown)", "VH": "EVQLVQSGAEVKKPGASVKVSCKASGYTFTSYYMHWVRQAPGQGLEWMGIINPSGGSTSYAQKFQGRVTMTRDTSTSTVYMELSSLRSEDTAVYYCARDGKGWDYYGSGSPLQYWGQGTLVTVSS", "VL": "LPVLTQPPSVSKGLRQTATLTCTGNSNNVGNQGAAWLQQHQGHPPKLLSYRNNDRPSGISERLSASRSGNTASLTITGLQPEDEADYYCSAWDSSLSAWVFGGGTKLTVL"}, "B3": {"name": "anti-BCAM human IgG4 antibody 111a (antibody, V domains shown)", "VH": "QVTLKESGPGLVKPSGTLSLTCAVSGGSISSSNWWSWVRQPPGKGLEWIGEIYHSGSTNYNPSLKSRVTISVDKSKNQFSLKLSSVTAADTAVYYCARAYTVTTTYFDYWGQGTLVTVSS", "VL": "NIQMTQSPSTLSASVGDRVTITCRASQSMSTWLAWYQQKPGRAPKLLIYKASALETGVPSRFSGSGSGTQFTLTISSLQPDDFATYYCQQYDEFASFGQGTKVEIK", "notes": "Derived from a human scFv phage library; also called 11la"}},
  "data": [
    {"target": "T1, BCAM protein (antigenic protein coated in the ELISA) (UniProt P50895 32-547, limits assumed)", "T1 construct": "also called antigen protein; Lu", "T1 sequence (looked up)": "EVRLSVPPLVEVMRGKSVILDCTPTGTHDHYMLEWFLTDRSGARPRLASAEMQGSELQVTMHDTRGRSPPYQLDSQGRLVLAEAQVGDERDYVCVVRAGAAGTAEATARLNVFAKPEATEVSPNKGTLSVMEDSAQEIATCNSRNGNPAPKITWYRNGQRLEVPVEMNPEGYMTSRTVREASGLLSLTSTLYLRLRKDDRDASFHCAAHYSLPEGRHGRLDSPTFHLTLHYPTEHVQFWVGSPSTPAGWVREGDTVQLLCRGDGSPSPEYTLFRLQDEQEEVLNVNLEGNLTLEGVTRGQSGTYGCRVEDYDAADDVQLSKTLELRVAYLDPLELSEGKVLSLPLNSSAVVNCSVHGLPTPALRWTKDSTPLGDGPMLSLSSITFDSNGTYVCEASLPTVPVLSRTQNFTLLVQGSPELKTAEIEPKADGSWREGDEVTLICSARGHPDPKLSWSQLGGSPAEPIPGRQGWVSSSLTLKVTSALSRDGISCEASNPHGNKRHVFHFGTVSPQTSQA", "test": "ELISA on coated BCAM protein", "experimental": "(§1) In order to confirm the binding ability of each antibody prepared in Example 1 to an antigen protein (BCAM protein), an ELISA (Enzyme-Linked Immunosorbent Assay) test was performed. The antigenic protein was diluted in PBS buffer and prepared to a concentration of 15 nM. Each well of a 96-well half plate (Costar, Cat. No. 3690) was coated with 50 μL of the antigenic protein, followed by overnight incubation at 4° C. Next day, after all the solutions in the plate were removed, a blocking buffer (3% BSA in PBS) was added to each well, followed by incubation at 37° C. for 1 hour. Three antibody samples (111a, 111b, and 111c) were sequentially diluted in the blocking buffer from 1 μM to 7 points (1 pM) at a dilution ratio of 10-fold. After the blocking process was completed, the buffer was removed from the well, and the antibodies prepared by the dilution was added to each well by 50 μL, followed by incubation at 37° C. for 2 hours. The incubated well was washed with 0.1% PBST (0.1% Tween 20 in PBS) and were treated with HRP-conjugated anti-human IgG Fc antibodies (ThermoFisher Scientific, Cat. No.: 31423) which were secondary antibodies for antibody detection at 37° C. for 1 hour, and then washed again with 0.1% PBST. ABTS solution (ThermoFisher Scientific, Cat. No.: 00-2024) was added to each well by 50 μL for coloring, and reacted at room temperature for 10 minutes, and an optical density at 405 nm (OD₄₀₅) was measured. In order to compare the degree of avidity of each antibody to antigens, the EC50 concentration of each antibody was calculated, and the results are shown in Table 4.", "units": {"EC50": "nM"}, "values": [
      {"binder": "B1", "EC50": 7.7},
      {"binder": "B2", "EC50": 127},
      {"binder": "B3", "EC50": 12.5}
    ]},
    {"target": "T1, BCAM protein (antigenic protein coated …)", "test": "ELISA, BCAM coated at 15 nM, antibody at 1 nM", "experimental": "as §1", "units": {"OD405": "OD405"}, "values": [
      {"binder": "B1", "OD405": 0.5},
      {"binder": "B2", "OD405": 0.33},
      {"binder": "B3", "OD405": 0.46}
    ]},
    {"target": "T1, BCAM protein (antigenic protein coated …)", "test": "ELISA, BCAM coated at 15 nM, antibody at 10 nM", "experimental": "as §1", "units": {"OD405": "OD405"}, "values": [
      {"binder": "B1", "OD405": 1.41},
      {"binder": "B2", "OD405": 0.43},
      {"binder": "B3", "OD405": 1.09}
    ]},
    {"target": "T1, BCAM protein (antigenic protein coated …)", "test": "ELISA, BCAM coated at 15 nM, antibody at 0.1 nM", "experimental": "as §1", "units": {"OD405": "OD405"}, "values": [
      {"binder": "B1", "OD405": 0.31},
      {"binder": "B2", "OD405": 0.35},
      {"binder": "B3", "OD405": 0.18}
    ]},
    {"target": "T1, BCAM protein (antigenic protein coated …)", "test": "ELISA, BCAM coated at 15 nM, antibody at 100 nM", "experimental": "as §1", "units": {"OD405": "OD405"}, "values": [
      {"binder": "B1", "OD405": 2.26},
      {"binder": "B2", "OD405": 0.46},
      {"binder": "B3", "OD405": 2.14}
    ]},
    {"target": "T1, BCAM protein (antigenic protein coated …)", "test": "ELISA, BCAM coated at 15 nM, antibody at 0.01 nM", "experimental": "as §1", "units": {"OD405": "OD405"}, "values": [
      {"binder": "B1", "OD405": 0.25},
      {"binder": "B2", "OD405": 0.15},
      {"binder": "B3", "OD405": 0.11}
    ]},
    {"target": "T1, BCAM protein (antigenic protein coated …)", "test": "ELISA, BCAM coated at 15 nM, antibody at 1000 nM", "experimental": "as §1", "units": {"OD405": "OD405"}, "values": [
      {"binder": "B1", "OD405": 2.34},
      {"binder": "B2", "OD405": 0.76},
      {"binder": "B3", "OD405": 2.32}
    ]},
    {"target": "T1, BCAM protein (antigenic protein coated …)", "test": "ELISA, BCAM coated at 15 nM, antibody at 0.001 nM", "experimental": "as §1", "units": {"OD405": "OD405"}, "values": [
      {"binder": "B1", "OD405": 0.11},
      {"binder": "B2", "OD405": 0.1},
      {"binder": "B3", "OD405": 0.1}
    ]},
    {"target": "T2, Human BCAM expressed on transfected HEK293FT cells (human, UniProt P50895 32-628)", "T2 construct": "whole, on cells; also called Human BCAM antigens; 293FT/BCAM1", "T2 sequence (looked up)": "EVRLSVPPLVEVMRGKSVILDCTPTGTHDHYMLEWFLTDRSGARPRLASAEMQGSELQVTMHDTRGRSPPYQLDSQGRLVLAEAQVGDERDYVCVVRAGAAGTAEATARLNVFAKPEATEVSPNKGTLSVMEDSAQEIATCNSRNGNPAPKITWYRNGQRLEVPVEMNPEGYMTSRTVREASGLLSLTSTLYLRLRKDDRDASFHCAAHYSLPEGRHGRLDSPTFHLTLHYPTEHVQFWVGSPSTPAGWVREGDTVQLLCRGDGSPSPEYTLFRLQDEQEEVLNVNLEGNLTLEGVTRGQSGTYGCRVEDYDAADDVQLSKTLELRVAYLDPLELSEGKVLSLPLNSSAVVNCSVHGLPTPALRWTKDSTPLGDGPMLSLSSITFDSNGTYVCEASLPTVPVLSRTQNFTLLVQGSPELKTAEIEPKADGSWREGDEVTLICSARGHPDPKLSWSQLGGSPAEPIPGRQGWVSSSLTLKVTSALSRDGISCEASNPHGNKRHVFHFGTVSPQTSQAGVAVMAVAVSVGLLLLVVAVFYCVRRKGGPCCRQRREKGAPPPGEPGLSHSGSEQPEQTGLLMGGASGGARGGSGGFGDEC", "test": "flow cytometry on HEK293FT cells transfected with human BCAM", "experimental": "Human BCAM antigens were expressed in HEK293FT cells via transfection (using 293FT/BCAM1 plasmid). The transfected HEK293FT cells (1×10⁵ cells) were suspended in PBS and 50 μL thereof was seeded on a plate.\nSeparately, each of the anti-BCAM antibodies of Example 1 and isotype control (human IgG) antibodies was initially diluted at a concentration of 45 μg/mL using PBS and diluted 12 times through 3-fold dilution, and the plate was incubated at an appropriate time and at an appropriate temperature. As a negative control, PBS buffer was used.\nThen, after washing, AlexaFluor® 647 AffiniPure Goat Anti-Human IgG (H+L) (min X Bov, Hrs, Ms Sr Prot) (Jackson) (1 μg/mL) was added thereto and the plate was incubated again, washed again with PBS, and the binding degree of antigen-antibody was analyzed with a flow cytometer.", "units": {"EC50": "µg/mL"}, "values": [
      {"binder": "B1", "EC50": 0.0427},
      {"binder": "B2", "EC50": 0.171},
      {"binder": "B3", "EC50": 0.189}
    ]},
    {"target": "T3, Human BCAM (amine-coupled to AR2G biosensors) (human, UniProt P50895 32-547, limits assumed)", "T3 construct": "also called human BCAM protein", "T3 sequence (looked up)": "T1 sequence (looked up)", "test": "BLI (Octet QK), human BCAM amine-coupled to AR2G sensor, antibody in solution, 1:1 fit", "experimental": "The binding ability confirmation test according to BLI for the three antibodies prepared in Example 1 was performed using Octet (Octet QK, ForteBio).\nSpecifically, in order to bind human BCAM (antigen) using amine coupling, Reactive 2nd Generation (AR2G) biosensors (Cat. No. 18-5094, Sartorius) were mounted and activated using the AE2G reagent kit (Cat. No. 18-5095). Thereafter, the biosensors were put in an antigen solution for 10 minutes to bind the human BCAM, and put in an ethanolamine solution for 5 minutes to terminate the reaction. The biosensors to which the human BCAM was bound was put into a buffer containing the prepared three different antibodies 111a, 111b, and 111c, and the binding reaction was monitored for 5 minutes, followed by a dissociation reaction for 15 minutes. At this time, antibody solutions were sequentially diluted, and association and dissociation rates depending on different concentrations were verified. The association (Ka) and dissociation (Kd) rate constants were determined by fitting them to a 1:1 binding model using a curve-fitting software. The binding dissociation equilibrium constant (KD) was calculated with KD=Kd/Ka.", "units": {"Kd": "nM", "koff": "s⁻¹", "kon": "M⁻¹ s⁻¹"}, "values": [
      {"binder": "B1", "Kd": 0.084, "koff": 0.000255, "kon": "3.04e+06"},
      {"binder": "B2", "Kd": 13.1, "koff": 0.000306, "kon": 23400},
      {"binder": "B3", "Kd": 2.47, "koff": 0.000397, "kon": 161000}
    ]}
  ]
}
